Measurements from US20130130315A1 (ADVANCECOR, published 2013).

How the values were obtained:
CD133 protein [1] = biological target: T1, CD133 protein (UniProt O43490 20-865, limits assumed); test: FACS of phage dilution series on AC133/293 cells
T1 construct: whole, on cells; Presented on AC133/293 cells: paraformaldehyde-fixed in the cellular ELISA, unfixed in the phage FACS; also called CD133 antigen; AC133
T1 sequence (looked up): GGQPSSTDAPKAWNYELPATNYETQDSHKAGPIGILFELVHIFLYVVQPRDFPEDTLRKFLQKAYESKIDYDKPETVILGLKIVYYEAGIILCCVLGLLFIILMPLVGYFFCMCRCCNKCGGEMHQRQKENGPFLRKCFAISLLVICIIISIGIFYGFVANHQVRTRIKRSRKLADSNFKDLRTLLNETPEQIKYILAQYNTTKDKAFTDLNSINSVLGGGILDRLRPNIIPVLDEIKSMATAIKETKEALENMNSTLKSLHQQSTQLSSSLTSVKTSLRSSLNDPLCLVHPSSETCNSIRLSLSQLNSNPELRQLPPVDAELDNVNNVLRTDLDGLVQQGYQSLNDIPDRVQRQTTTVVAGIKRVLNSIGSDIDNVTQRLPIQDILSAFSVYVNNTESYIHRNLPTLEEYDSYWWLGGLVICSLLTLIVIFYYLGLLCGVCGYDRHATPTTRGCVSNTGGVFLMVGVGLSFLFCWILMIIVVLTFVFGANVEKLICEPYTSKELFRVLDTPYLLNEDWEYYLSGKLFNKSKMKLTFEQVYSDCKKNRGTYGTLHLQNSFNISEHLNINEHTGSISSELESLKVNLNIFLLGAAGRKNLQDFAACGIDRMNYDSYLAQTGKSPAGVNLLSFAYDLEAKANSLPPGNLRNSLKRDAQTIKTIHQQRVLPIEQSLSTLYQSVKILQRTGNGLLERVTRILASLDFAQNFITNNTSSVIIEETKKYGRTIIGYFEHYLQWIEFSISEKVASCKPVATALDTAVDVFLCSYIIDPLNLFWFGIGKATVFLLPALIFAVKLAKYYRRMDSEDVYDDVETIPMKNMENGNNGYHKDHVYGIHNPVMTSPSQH

CD133 protein [2] = biological target: T1, CD133 protein; test: cellular ELISA on fixed AC133/293 cells
Method: 1×10⁵ cells in 0.2 ml of medium were added to each well and incubated o/n at 37° C., 5% CO₂ to allow cells to attach to the surface of the plate. The next day wells were washed once with 0.2 ml PBS and fixed with 0.1 ml 2% Paraformaldehyde (in PBS, pH 7.4) for 10-20 min at RT. Wells were washed with PBS-T (PBS+0.1% Tween-20) and blocked with either 1× RotiBlock or 3% milk in PBS-T for 1 hour at RT. After washing with PBS-T, serial dilutions of the respective antibody were added to the wells and incubated at RT for at least one hour while shaking. After washing with PBS-T, 0.1 ml of StrepMAb-Classic-HRP (1:10000 in PBS-T, lba BioTagnology, Göttingen, Germany) or of horseradish peroxidase linked anti-mouse IgG (1:10000 in PBS-T, Dianova, Hamburg, Germany) was added and incubated at RT for one hour with shaking. After washing with PBS-T, 0.1 ml of 1-Step Ultra TMB-ELISA substrate (Thermo Scientific, Braunschweig, Germany) was added and incubated until an adequate blue staining developed. To stop the reaction 0.1 ml 1 M H₂SO₄ was added to each well and absorbance at 450 nm and 595 nm as a reference was measured with an infinite F200 plate reader (TECAN, Männedorf, Switzerland). […] Signals were detected using an anti-mouse IgG-HRP antibody (1:10000 in PBS-T, Dianova, Hamburg, Germany). […]

bovine collagen I = biological target: T2, bovine collagen I (bovine, UniProt P02453 162-1217; P02465 80-1117, limits assumed); test: ELISA on immobilized bovine collagen I
T2 construct: also called immobilized collagen I; soluble collagen I
T2 sequence (P02453 162-1217 limits assumed, chain 1 of 2): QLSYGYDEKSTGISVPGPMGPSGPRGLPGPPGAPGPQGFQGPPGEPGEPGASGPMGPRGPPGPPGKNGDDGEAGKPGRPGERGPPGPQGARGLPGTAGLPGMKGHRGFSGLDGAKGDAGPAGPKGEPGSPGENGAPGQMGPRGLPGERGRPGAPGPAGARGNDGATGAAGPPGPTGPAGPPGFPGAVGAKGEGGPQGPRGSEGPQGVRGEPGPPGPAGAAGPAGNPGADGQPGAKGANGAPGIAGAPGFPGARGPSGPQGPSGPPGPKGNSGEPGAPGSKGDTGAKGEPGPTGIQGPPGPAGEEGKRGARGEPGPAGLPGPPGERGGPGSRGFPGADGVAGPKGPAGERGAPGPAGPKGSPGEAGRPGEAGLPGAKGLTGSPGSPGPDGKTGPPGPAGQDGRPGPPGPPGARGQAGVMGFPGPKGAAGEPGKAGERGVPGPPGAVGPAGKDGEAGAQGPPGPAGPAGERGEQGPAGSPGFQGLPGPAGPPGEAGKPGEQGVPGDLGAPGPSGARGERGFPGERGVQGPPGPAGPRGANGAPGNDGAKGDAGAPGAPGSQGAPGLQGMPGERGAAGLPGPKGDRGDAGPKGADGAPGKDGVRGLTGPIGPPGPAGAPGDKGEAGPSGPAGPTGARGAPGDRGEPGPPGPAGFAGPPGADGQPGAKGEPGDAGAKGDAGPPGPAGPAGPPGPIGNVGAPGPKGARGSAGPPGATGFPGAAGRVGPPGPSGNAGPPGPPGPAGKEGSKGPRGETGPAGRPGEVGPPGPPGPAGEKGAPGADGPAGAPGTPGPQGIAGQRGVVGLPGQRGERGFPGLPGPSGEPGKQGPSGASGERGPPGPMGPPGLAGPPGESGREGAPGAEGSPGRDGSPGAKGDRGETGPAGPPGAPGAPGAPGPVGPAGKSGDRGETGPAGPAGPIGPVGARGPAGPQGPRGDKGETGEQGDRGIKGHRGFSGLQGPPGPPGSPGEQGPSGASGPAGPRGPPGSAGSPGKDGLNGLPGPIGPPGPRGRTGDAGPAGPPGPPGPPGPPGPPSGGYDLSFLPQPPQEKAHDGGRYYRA
T2 sequence (P02465 80-1117 limits assumed, chain 2 of 2): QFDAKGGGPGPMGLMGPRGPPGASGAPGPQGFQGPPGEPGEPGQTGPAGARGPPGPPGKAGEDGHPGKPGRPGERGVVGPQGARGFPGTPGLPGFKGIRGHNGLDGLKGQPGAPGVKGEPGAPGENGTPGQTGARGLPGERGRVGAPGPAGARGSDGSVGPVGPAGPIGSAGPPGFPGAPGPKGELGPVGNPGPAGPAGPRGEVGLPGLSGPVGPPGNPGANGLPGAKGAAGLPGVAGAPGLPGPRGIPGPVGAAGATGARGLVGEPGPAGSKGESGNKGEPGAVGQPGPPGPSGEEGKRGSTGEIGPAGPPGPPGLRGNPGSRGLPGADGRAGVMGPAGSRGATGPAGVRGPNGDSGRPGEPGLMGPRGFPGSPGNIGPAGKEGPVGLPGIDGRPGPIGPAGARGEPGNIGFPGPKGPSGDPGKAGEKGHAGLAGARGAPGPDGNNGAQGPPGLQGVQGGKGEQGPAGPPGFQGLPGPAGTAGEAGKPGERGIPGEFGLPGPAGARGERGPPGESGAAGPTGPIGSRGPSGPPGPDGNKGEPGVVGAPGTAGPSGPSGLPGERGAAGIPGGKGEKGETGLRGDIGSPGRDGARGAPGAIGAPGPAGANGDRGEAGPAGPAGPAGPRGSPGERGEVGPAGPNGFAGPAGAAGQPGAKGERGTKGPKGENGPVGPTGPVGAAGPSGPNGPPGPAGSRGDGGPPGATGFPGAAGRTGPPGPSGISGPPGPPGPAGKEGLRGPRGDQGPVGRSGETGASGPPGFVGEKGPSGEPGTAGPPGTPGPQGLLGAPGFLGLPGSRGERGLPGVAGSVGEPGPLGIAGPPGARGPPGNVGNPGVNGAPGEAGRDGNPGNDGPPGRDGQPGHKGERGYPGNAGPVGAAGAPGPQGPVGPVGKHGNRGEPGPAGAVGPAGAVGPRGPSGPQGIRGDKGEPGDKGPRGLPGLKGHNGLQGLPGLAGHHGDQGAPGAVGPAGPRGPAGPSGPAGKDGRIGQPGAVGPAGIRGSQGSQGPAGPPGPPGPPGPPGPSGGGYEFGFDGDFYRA
Method: Fc-protein was used as negative control.
An Immulon 2 HB 96-well plate (NUNC, Rochester, N.Y.) was coated with 0.1 ml 1 μg/ml bovine collagen I in 15 mM Na₂CO3, 35 mM NaHCO3, pH 9.6 o/n at 4° C. Wells were washed with PBS-T, blocked with 0.1 ml 1× RotiBlock (Roth, Karlsruhe, Germany) in PBS-T for one hour and washed again before addition of 0.1 ml of threefold dilutions of fusion protein. After one hour incubation at RT with shaking, wells were washed with PBS-T. Wells were incubated with 0.1 ml anti-human IgG-HRP (Dianova, Hamburg, Germany) 1:10000 in PBS-T for one hour at RT with shaking. The plate was washed with PBS-T and incubated with 0.1 ml 1-Step Ultra TMB-ELISA (PIERCE, Rockford, Ill.). After blue staining had developed sufficiently, reactions were stopped by addition of 0.1 ml 1 M H₂SO₄. Absorbance was measured at 450 nm and 595 nm as a reference wavelength using an infinite F200 plate reader (TECAN, Männedorf, Switzerland). EC₅₀ values were calculated with Sigma Plot 11 using Four Parameter Logistic.

CD133 protein [3] = biological target: T1, CD133 protein; test: competition cellular ELISA on fixed AC133/293 cells; competitor of 2 nM W6B3H10 mAb
Method: 1×10⁵ cells in 0.2 ml of medium were added to each well and incubated o/n at 37° C., 5% CO₂ to allow cells to attach to the surface of the plate. The next day wells were washed once with 0.2 ml PBS and fixed with 0.1 ml 2% Paraformaldehyde (in PBS, pH 7.4) for 10-20 min at RT. Wells were washed with PBS-T (PBS+0.1% Tween-20) and blocked with either 1× RotiBlock or 3% milk in PBS-T for 1 hour at RT. After washing with PBS-T, serial dilutions of the respective antibody were added to the wells and incubated at RT for at least one hour while shaking. After washing with PBS-T, 0.1 ml of StrepMAb-Classic-HRP (1:10000 in PBS-T, lba BioTagnology, Göttingen, Germany) or of horseradish peroxidase linked anti-mouse IgG (1:10000 in PBS-T, Dianova, Hamburg, Germany) was added and incubated at RT for one hour with shaking. After washing with PBS-T, 0.1 ml of 1-Step Ultra TMB-ELISA substrate (Thermo Scientific, Braunschweig, Germany) was added and incubated until an adequate blue staining developed. To stop the reaction 0.1 ml 1 M H₂SO₄ was added to each well and absorbance at 450 nm and 595 nm as a reference was measured with an infinite F200 plate reader (TECAN, Männedorf, Switzerland). […] Signals were detected using an anti-mouse IgG-HRP antibody (1:10000 in PBS-T, Dianova, Hamburg, Germany).

B1: phage clone 27 (humanized single chain antibody derived from phage clone 27) (scFv)
scFv: DIQMTQSPKSLSMSVGDRVTITCKASENVDTYVSWYQQKPGKAPKVLIYGASNRYTGVPSRFSGSGSATDFTLTISSLQPEDFATYHCGQSYRYPLTFGQGTKVEIKGGGGSGGGGSGGGGSEVQLVQSGAEVKKPGASVKVSCKASGYSFTNYYVHWVKQAPGQGLEWMGYVDPFNGDFNYNQKFKDRVTLTVDTSTPTAYMELSSLTPEDTAVYYCARGGLDWYDTSYWYFDVWGQGTLVTVSS
notes: not shown: fusion to the phage coat protein; display format not described
Kd (CD133 protein [1]): 0.0508 nM

B2: phage clone 29 (humanized single chain antibody derived from phage clone 29) (scFv)
scFv: DIQMTQSPRSLSVSVGDRVTITCKASENVDTYVSWYQQKPGKAPKVLIYGASNRYTGVPSRFTGSGSATDFTLTISSLQPEDFATYYCGQSYRYPLTFGQGTKVEIKGGGGSGGGGSGGGGSEVQLVQSGAEVKKPGASVKVSCKACGYSFTNYYVHWVKQAPGQGLEWMGYVDPFNGDLNYNQKFKDRVTLTVDTSTSTAYMELSSLTSEDTAVYYCARGGLHCYDTSYWYFDVWGQGTLVTVSS
notes: as for B1
Kd (CD133 protein [1]): 0.103 nM

B3: W6B3H10 monoclonal antibody (antibody, V domains shown)
VH: EVQLQQSGPDLMKPGASVKISCKASGYSFTNYYVHWVKQSLDKSLEWIGYVDPFNGDFNYNQKFKDKATLTVDKSSSTAYMHLSSLTSEDSAVYYCARGGLDWYDTSYWYFDVWGAGTAVTVSS
VL: DILMTQSPKSMSMSLGERVTLSCKASENVDTYVSWYQQKPEQSPKVLIYGASNRYTGVPDRFTGSGSATDFSLTISNVQAEDLADYHCGQSYRYPLTFGAGTKLELK
notes: Mouse monoclonal antibody from hybridoma clone W6B3H10 (subclone of W6B3C1), with gamma heavy chain and kappa light chain; also called W6B3H10 mAb; parental mAb
EC50 (CD133 protein [2]): 0.12 nM

B4: humanized fusion protein hscFv-lh-GPVI-Fc (Fc fusion)
chain: DIQMTQSPKSLSASVGDRVTITCKASENVDTYVSWYQQKPGKAPKVLIYGASNRYTGVPSRFTGSGSATDFTLTISSLQPEDFATYYCGQSYRYPLTFAQGTKVEIKGGGGSGGGGSGGGGSEVQLVQSGAEVKKPGASVKVSCKASGYSFTNYYVHWVKQAPGQGLEWMGYVDPFNGDFNYNQKFKDRVTLTVDTSTSTAYMELSSLTSEDRAVYYCARGGLDWYDTSYWYFDVWGQGTLVTVSSQSGPLPKPSLQALPSSLVPLEKPVTLRCQGPPGVDLYRLEKLSSSRYQDQAVLFIPAMKRSLAGRYRCSYQNGSLWSLPSDQLELVATGVFAKPSLSAQPGPAVSSGGDVTLQCQTRYGFDQFALYKEGDPAPYKNPERWYRASFPIITVTAAHSGTYRCYSFSSRDPYLWSAPSDPLELVVTGTSVTPSRLPTEPPSSVAEFSEATAELTVSFTNKVFTTETSRSITTSPKESDSPAGPARQYYTKGNGGRVECPPCPAPPVAGPSVFLFPPKPKDTLMISRTPEVTCVVVDVSHEDPEVQFNWYVDGVEVHNAKTKPREEQFNSTFRVVSVLTVVHQDWLNGKEYKCKVSNKGLPAPIEKTISKTKGQPREPQVYTLPPSREEMTKNQVSLTCLVKGFYPSDIAVEWESNGQPENNYKTTPPMLDSDGSFFLYSKLTVDKSRWQQGNVFSCSVMHEALHNHYTQKSLSLSPGK
EC50 (bovine collagen I): 4.7 nM | IC50 (CD133 protein [3]): 2.7 nM
